{"source": "paper doi:10.1101/2025.06.28.662095", "key": {"[1]": {"target": "MtSteAΔTM (M. tuberculosis SteA truncated soluble construct, residues 12-344) (Mycobacterium tuberculosis)", "assay": "crystal structure"}, "[2]": {"target": "MtSteAΔTM (M. tuberculosis SteA truncated soluble construct, residues 12-344) (Mycobacterium tuberculosis)", "assay": "SEC-SLS"}}, "data": [{"substance": "MtSteAΔTM (M. tuberculosis SteA truncated soluble construct, residues 12-344) (domain or fragment)", "values": [{"measurement": "stoichiometry N", "setting": "[1]", "value": 2}, {"measurement": "stoichiometry N", "setting": "[2]", "value": 2}]}]}
